From paper PMC7971322, “Insights into the mechanism regulating the differential expression of the P28-OMP outer membrane proteins in obligatory intracellular pathogen Ehrlichia chaffeensis”

What was measured:
[1] = target: T1, rTr1 (Ehrlichia chaffeensis) (UniProt Q2GF81); test: DNase I footprinting; settings: EMSA/footprint: 10 mM Tris-HCl pH 7.5, 100 mM NaCl, 1 mM DTT, 10% glycerol, 25 C, SPR: 10 mM Tris-HCl pH 7.5, 100 mM NaCl, 0.05% Tween 20, 25 C
T1 sequence: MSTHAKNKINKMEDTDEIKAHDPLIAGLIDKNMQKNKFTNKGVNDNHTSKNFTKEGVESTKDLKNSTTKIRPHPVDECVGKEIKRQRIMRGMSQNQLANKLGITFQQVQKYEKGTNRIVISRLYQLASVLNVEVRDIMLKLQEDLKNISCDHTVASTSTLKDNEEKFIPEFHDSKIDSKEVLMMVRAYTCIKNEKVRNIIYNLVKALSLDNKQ

[2] = target: T1, rTr1 (Ehrlichia chaffeensis); test: EMSA; settings: EMSA/footprint: 10 mM Tris-HCl pH 7.5, 100 mM NaCl, 1 mM DTT, 10% glycerol, 25 C, SPR: 10 mM Tris-HCl pH 7.5, 100 mM NaCl, 0.05% Tween 20, 25 C
[3] = target: T2, rEcxR (Ehrlichia chaffeensis) (UniProt Q2GG40); test: EMSA; settings: EMSA/footprint: 10 mM Tris-HCl pH 7.5, 100 mM NaCl, 1 mM DTT, 10% glycerol, 25 C, SPR: 10 mM Tris-HCl pH 7.5, 100 mM NaCl, 0.05% Tween 20, 25 C
T2 sequence: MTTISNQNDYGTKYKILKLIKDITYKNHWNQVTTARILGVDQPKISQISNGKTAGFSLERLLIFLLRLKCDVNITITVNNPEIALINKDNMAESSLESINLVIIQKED

rTr1 [4] = target: T3, rTr1 (Ehrlichia chaffeensis, UniProt Q2GF81 1-213); test: SPR; EMSA/footprint: 10 mM Tris-HCl pH 7.5, 100 mM NaCl, 1 mM DTT, 10% glycerol, 25 C; SPR: 10 mM Tris-HCl pH 7.5, 100 mM NaCl, 1 mM DTT, 0.05% Tween 20, 25 C; settings: protein: recombinant, tags: N-terminal His (pET-33b), chain copies: 2
T3 sequence: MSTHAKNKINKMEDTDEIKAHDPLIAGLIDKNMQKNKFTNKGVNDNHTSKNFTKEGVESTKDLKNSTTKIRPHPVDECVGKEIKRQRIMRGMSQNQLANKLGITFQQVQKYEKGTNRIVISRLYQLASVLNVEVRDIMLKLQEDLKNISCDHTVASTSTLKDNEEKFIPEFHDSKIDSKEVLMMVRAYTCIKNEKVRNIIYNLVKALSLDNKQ

rEcxR = target: T4, rEcxR (Ehrlichia chaffeensis, UniProt Q2GG40 1-108); test: as above; settings: protein: recombinant, tags: C-terminal His (pET-29a), chain copies: 2, none in plain EMSA
T4 sequence: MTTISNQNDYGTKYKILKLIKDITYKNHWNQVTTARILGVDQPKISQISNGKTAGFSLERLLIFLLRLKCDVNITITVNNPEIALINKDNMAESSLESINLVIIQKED

rTr1 [5] = target: T3, rTr1; test: competition; 50-fold unlabelled vs biotinylated region I, 1 uM rTr1; EMSA/footprint: 10 mM Tris-HCl pH 7.5, 100 mM NaCl, 1 mM DTT, 10% glycerol, 25 C; SPR: 10 mM Tris-HCl pH 7.5, 100 mM NaCl, 1 mM DTT, 0.05% Tween 20, 25 C; settings: protein: recombinant; tags: N-terminal His (pET-33b); chain copies: 2; blunt
rTr1 [6] = target: T3, rTr1; test: competition; 50-fold unlabelled vs biotinylated region II, 1 uM rTr1; EMSA/footprint: 10 mM Tris-HCl pH 7.5, 100 mM NaCl, 1 mM DTT, 10% glycerol, 25 C; SPR: 10 mM Tris-HCl pH 7.5, 100 mM NaCl, 1 mM DTT, 0.05% Tween 20, 25 C; settings: protein: recombinant; tags: N-terminal His (pET-33b); chain copies: 2; blunt
rTr1 [7] = target: T3, rTr1; test: EMSA; 1.8 uM rTr1; EMSA/footprint: 10 mM Tris-HCl pH 7.5, 100 mM NaCl, 1 mM DTT, 10% glycerol, 25 C; SPR: 10 mM Tris-HCl pH 7.5, 100 mM NaCl, 1 mM DTT, 0.05% Tween 20, 25 C; settings: protein: recombinant; tags: N-terminal His (pET-33b); chain copies: 2; blunt

How did the binding [1] turn out when “ATGATATCAATGCACTTGTTATGAAAACTTTTTTGTAATTCATATATAACCTAATAGTGACAAATAAATTAACAATAGTAGAAGTGTCATATAAAAGCAAGTCAGAATATAAATTTTTGTATAAAATATCGGTAACTTTTGTAAGGAAAATTTAATATATTACGTCAGGTAAGTAATAGCAAAAAAACTGGTTAAGTATAGTATCATGTGTAAAGGTGAGAAAAACAGCACTTATA (double strand) [p28 promoter footprint fragment]” was run?
The binding was “binds”.

Which results are given for “CCTATAACAAAGCAACCTATGTAAGATAAATCATGCATAAAGTGAATGCAATAGTTATTTAATGGATATATTCTATCTAGTTTGCTGGAATAGTATACTAATTATATAATATACAGAAATAACATATTATGCTTTATGAAATATAAGATAAAATTTATTTACTTTTTAGCTTGATTGGATCAATAATTTATATTAAACATGAAAGTCAGTTTGTCCGGGT (double strand) [tr1 promoter EMSA probe]”?
binding [2]: binds; binding [3]: binds

“CCTATAACAAAGCAACCTATGTAAGATAAATCATGCATAAAGTGAATGCAATAGTTATTTAATGGATATATTCTATCTAGTTTGCTGGAATAGTATACTAATTATATAATATACAGAAATAACATATTATGCTTTATGAAATATAAGATAAAATTTATTTACTTTTTAGCTTGATTGGATCAATAATTTATATTAAACATGAAAGTCAGTTTGTCCGGGT (double strand) [tr1 promoter footprint fragment]” was tested. Which binding [1] did it give?
Its binding is “binds”.

Which binding [2] does the source give for “GAATTTGTGATTTGAAATAACAAGACTTAAATGTCGAATTTAGCTTCTGTCCTAGTGGATAAGTACTTTAGCAAGTGGTAAAAGCAAGTCTACTCATATTTTTATTAATTAAGTAGTAAAGTTAACTATAGATTTTATTAAAATTTTTATTCTAATCACTTTAAATATCAATTACTTTTGTTGTAAATTTGAAAGAAATTTTATATTCTAGACTTGCTTTTCTTTATTTCTTTCATTATTCTTAAATTTTTATTATCTTTTATAAAAGGTTTATTAAC (double strand) [omp-1B promoter EMSA probe]” here?
Its binding is “binds”.

What about the binding [3] of the same molecule?
Its binding is “binds”.

How did the binding [1] turn out when “GAATTTGTGATTTGAAATAACAAGACTTAAATGTCGAATTTAGCTTCTGTCCTAGTGGATAAGTACTTTAGCAAGTGGTAAAAGCAAGTCTACTCATATTTTTATTAATTAAGTAGTAAAGTTAACTATAGATTTTATTAAAATTTTTATTCTAATCACTTTAAATATCAATTACTTTTGTTGTAAATTTGAAAGAAATTTTATATTCTAGACTTGCTTTTCTTTATTTCTTTCATTATTCTTAAATTTTTATTATCTTTTATAAAAGGTTTATTAAC (double strand) [omp-1B promoter footprint fragment]” was run?
The binding was “binds”.

“GTGATAGGGAATGAATTCAGAGATATTCCTGCTATGATACCCAGTACCTCAACTCTCACAGGTAATCACTTTACTATAGTAACACTAAGTGTATGCCACTTTGGAGTGGAACTTGGAGGAAGGTTTAACTTTTAATTTTATTATTGCCACATGTTAAAAATAATCTAAACTTGTTTTTATTATTGCTGCAGGTAAATAAAAATAGTGGCAAAAGAATGTAGCAATAAGAGGGGGGGGGGGGGGACTAGTTTATAAGTGCTGTTTTTCTCACCTTTA (double strand) [p28 II footprint fragment]” was tested. Which binding [1] did it give?
The binding was “binds”.

B1: Tr1 protected region I (p28 promoter) (dsDNA)
DNA 1: TACACATGATACTATACTTAACCAGTTTTTTTGCTATTACTTACCTGACG
DNA 2: CGTCAGGTAAGTAATAGCAAAAAAACTGGTTAAGTATAGTATCATGT
B1 was tested. Which Kd (rTr1 [4]; none in plain EMSA, 5' overhang 3 nt on strand 1 (reverse oligo as printed is 47 nt)) did it give?
Its Kd is 2.52 nM.

Does B1 bind (rEcxR; 5' overhang 3 nt on strand 1 (reverse oligo as printed is 47 nt))?
Result: no binding

B2: Tr1 protected region I, mutated motif (dsDNA)
DNA 1: TACACATGATGGGGGGCTTAACCAGTTTTTTTGCTATTACTTACCTGACG
DNA 2: CGTCAGGTAAGTAATAGCAAAAAAACTGGTTAAGCCCCCCATCATGTGTA
Does B2 bind (rTr1 [5])?
Result: no binding

B3: Tr1 protected region II (omp-1B promoter) (dsDNA)
DNA 1: AGTAAAGTTAACTATAGATTTTATTAAAATTTTTATTCTAATCACTTTAA
DNA 2: TTAAAGTGATTAGAATAAAAATTTTAATAAAATCTATAGTTAACTTTACT
What does the source list for B3?
Kd (rTr1 [4]; none in plain EMSA, blunt): 15.5 nM; binding result (rEcxR; blunt): no binding

B4: Tr1 protected region II, mutated motif (dsDNA)
DNA 1: AGTAAAGTTAGGGGGGGATTTTATTAAAATTTTTATTCTAATCACTTTAA
DNA 2: TTAAAGTGATTAGAATAAAAATTTTAATAAAATCCCCCCCTAACTTTACT
Does B4 bind (rTr1 [6])?
Result: no binding

B5: Tr1 protected region III (tr1 promoter) (dsDNA)
DNA 1: TAAAGCATAATATGTTATTTCTGTATATTATATAAT
DNA 2: ATTATATAATATACAGAAATAACATATTATGCTTTA
Does B5 bind (rTr1 [7])?
Result: binds

B6: Tr1 protected region IV (upstream of p28) (dsDNA)
DNA 1: TAATCACTTTACTATAGTAACACTAAGTGTATGCCACTTTGGAGTGGAAC
DNA 2: GTTCCACTCCAAAGTGGCATACACTTAGTGTTACTATAGTAAAGTGATTA
Which Kd (rTr1 [4]; label: biotin for SPR (note on S35), blunt) does the source give for B6 here?
Its Kd is 14 nM.
